The results in this text go back to patent US20180280504A1, “GLYCAN-INTERACTING COMPOUNDS AND METHODS OF USE” (SIAMAB THERAPEUTICS, INC., priority 2014, published 2018).

A short description of the assay: Immunohistochemical staining of normal and tumor tissues (TMA). The conditions noted are these: tissue microarray slides. On the procedure:
The procedure for IHC staining includes the following steps: a). obtain tissue samples and prepare specimen slides; b). prepare tissue samples for IHC staining; i. perform antigen retrieval with Diva antigen retrieval solution for 30 minutes at 95° C.; or treat slides with 250 mU/mL neuraminidase in 50 mM sodium acetate, pH 5.5 for 2.5 hours at 37° C.; ii. rinse all treated slides twice with Tris-buffered saline auto-wash (TBS-AW); iii. apply Sniper protein block to all slides for 20 minutes to reduce non-specific binding and rinse twice in TBS-AW; c). perform antibody staining; i. incubate the pretreated slides with the primary antibody. For example, anti-STn antibody S3F is applied (10 or 30 ug/mL) for 60 minutes; ii. rinse twice in TBS-AW; iii. block endogenous peroxidase with peroxidase 1 for 10 minutes; iv. rinse twice with TBS-AW; v. incubate the slides with biotinylated goat anti-mouse IgG in DaVinci Green at 1:500 dilution for 30 minutes; vi. rinse twice with TBS-AW. d). develop the staining; i. add ABC Elite and incubate the slides for 30 minutes; ii. rinse twice with TBS-AW; iii. apply Sigma Fast DAB solution for 5 minutes followed by a rinse in distilled water; iv. counterstain and coverslip the slides for analysis. […]

B1: S3F: 3F1 variable domains combined with IgG2a constant domains; heavy chain SEQ ID NO: 63, light chain SEQ ID NO: 64 (antibody)
heavy: QVQLQQSDAELVKPGASVKISCKASGYTFTDHAIHWVKQKPEQGLDWIGYISPGNGDIKYNEKFKDKVTLTADKSSSTACMHLNSLTSEDSAVYFCKRSLLALDYWGQGTTLTVSSAKTTAPSVYPLAPVCGDTTGSSVTLGCLVKGYFPEPVTLTWNSGSLSSGVHTFPAVLQSDLYTLSSSVTVTSSTWPSQSITCNVAHPASSTKVDKKIEPRGPTIKPCPPCKCPAPNLLGGPSVFIFPPKIKDVLMISLSPIVTCVVVDVSEDDPDVQISWFVNNVEVHTAQTQTHREDYNSTLRVVSALPIQHQDWMSGKEFKCKVNNKDLPAPIERTISKPKGSVRAPQVYVLPPPEEEMTKKQVTLTCMVTDFMPEDIYVEWTNNGKTELNYKNTEPVLDSDGSYFMYSKLRVEKKNWVERNSYSCSVVHEGLHNHHTTKSFSRTPGK
light: DIVMTQSHKFMSTSVGDRVSITCKASQDVGTNIAWYQQKPGRSPKVLIYSASTRHTGVPDRFTGSGSGTDFTLTISNVQSEDLTDYFCQQYSSFPLTFGVGTKLELKRADAAPTVSIFPPSSEQLTSGGASVVCFLNNFYPKDINVKWKIDGSERQNGVLNSWTDQDSKDSTYSMSSTLTLTKDEYERHNSYTCEATHKTSTSPIVKSFNRNEC
Turning to B1, the “IHC staining pattern, cancerous tissues” value is given as “STn was present in most cancerous tissues” and the “IHC staining pattern, normal tissues” value is on record as “STn expression was rare in normal tissues”.
